Experiment [1] concerns the target GST-CA-Rac1 (constitutively-active Rac1 fused to GST) (UniProt P63000). Put plainly: pull-down; GST fusion (GST-RacWT, GST-CA-Rac1 or GST-alone) on glutathione-agarose beads; 550-1000 ug total lysate of HP cells, unstimulated or treated with TGFβ1 (10 ng/mL) up to 60 min; 2 h at 4 °C; three washes; immunoblot for Trio or CdGAP (LiCor).
The target in experiment [2] is GST-Rac1 (wild type Rac1 fused to GST) (UniProt P63000). The description is as above.

CdGAP, sequence (Q2M1Z3 whole entry): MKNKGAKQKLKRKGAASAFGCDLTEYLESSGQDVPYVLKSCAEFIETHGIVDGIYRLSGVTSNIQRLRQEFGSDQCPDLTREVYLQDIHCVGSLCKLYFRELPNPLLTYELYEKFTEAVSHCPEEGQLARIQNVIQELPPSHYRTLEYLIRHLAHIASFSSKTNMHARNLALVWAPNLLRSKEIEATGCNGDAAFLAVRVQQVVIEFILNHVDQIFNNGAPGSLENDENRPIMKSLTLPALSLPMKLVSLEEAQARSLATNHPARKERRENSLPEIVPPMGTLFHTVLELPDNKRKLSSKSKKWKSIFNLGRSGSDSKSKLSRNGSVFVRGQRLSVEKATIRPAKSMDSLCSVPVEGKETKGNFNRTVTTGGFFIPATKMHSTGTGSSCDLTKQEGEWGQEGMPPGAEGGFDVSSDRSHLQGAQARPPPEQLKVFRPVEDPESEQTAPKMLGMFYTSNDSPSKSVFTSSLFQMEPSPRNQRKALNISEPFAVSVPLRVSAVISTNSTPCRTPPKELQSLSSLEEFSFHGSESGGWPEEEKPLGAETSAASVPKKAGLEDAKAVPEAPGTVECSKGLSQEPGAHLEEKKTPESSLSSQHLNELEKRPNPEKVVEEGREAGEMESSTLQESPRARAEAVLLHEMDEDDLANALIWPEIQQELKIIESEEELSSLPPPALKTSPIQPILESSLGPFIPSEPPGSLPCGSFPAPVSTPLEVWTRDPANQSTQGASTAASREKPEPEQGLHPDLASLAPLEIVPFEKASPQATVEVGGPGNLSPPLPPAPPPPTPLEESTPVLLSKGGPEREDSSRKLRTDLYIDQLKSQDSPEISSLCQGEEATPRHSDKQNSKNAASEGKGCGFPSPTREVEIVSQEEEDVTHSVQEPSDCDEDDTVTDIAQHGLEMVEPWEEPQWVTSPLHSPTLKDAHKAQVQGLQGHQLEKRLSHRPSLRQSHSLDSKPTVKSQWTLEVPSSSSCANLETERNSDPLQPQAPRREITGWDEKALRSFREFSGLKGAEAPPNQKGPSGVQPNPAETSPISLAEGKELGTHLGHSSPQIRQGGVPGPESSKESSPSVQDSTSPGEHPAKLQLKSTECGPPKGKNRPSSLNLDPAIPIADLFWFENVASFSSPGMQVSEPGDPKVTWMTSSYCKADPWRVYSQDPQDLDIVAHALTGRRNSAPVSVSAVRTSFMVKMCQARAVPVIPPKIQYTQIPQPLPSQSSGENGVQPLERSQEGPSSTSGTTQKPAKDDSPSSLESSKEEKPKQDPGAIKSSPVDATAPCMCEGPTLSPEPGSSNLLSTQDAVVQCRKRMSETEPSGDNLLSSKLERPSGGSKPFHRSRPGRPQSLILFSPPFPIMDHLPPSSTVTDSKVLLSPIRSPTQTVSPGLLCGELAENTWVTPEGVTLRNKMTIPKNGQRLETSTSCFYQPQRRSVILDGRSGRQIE

In experiment [1], “CdGAP (from UniProt Q2M1Z3 1-1444) (natural protein)” yielded a fold change of CdGAP pulled down by GST-CA-Rac1, 30 min TGFβ1 against 0 min of 1.55 fold; a fold change of CdGAP pulled down by GST-CA-Rac1, 45 min TGFβ1 against 0 min of 1.56 fold; a fold change of CdGAP pulled down by GST-CA-Rac1, 60 min TGFβ1 against 0 min of 1.53 fold.

“Trio, O75962 1-3097 (natural protein; other documents disagree on this pair)”: in experiment [2], the fold change of Trio bound to GST-Rac1, 45 min TGFβ1 against unstimulated is 1.82 fold.

The record behind these values is paper PMC5855701.
